Laboratory results reported in the supplement of paper PMC10567573.

B1: NCK2 (parent)
chain: YVERKNSLKKGSLVKNLKDTLGLG
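Also: lentivirally expressed fusions sorted by FACS into six bins by GFP to DsRed ratio, PSI derived from sequencing read proportions per bin multiplied by bin number.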

Variants of: B1
Experiment: protein stability index of a GFP-peptide fusion (GPS, HEK-293T) (PSI 1-6); higher = more stable
Settings: c terminus: a fixed tail appended
In the case of YVERKNSTKKGSLVKNLKDTLGLG [L8T], the protein stability index is reported as 2.58. Work on YVERKNSLKKGSLVKNLKDTLSLG [G22S] yielded a protein stability index of 2.13. With YVERKNSLKKGSLVKNLKDTLGLQ [G24Q] the protein stability index was 2.59. In the case of YVRRKNSLKKGSLVKNLKDTLGLG [E3R], the protein stability index is reported as 2.52. YVERKNSLKKGSLVKNLKDLLGLG [T20L] gave a protein stability index of 2.07. For YVERKNSLKKGSLVKNLKDTLGLN [G24N], the protein stability index was 1.98. In the case of YVERKNSLKKGSLVKNLKDTLGIG [L23I], the protein stability index is reported as 2.37. In the case of YVERKNSLKKGSLVKNLKDTLGLP [G24P], the protein stability index is reported as 2.28. Work on YVERKNSLKKGSLVKYLKDTLGLG [N16Y] yielded a protein stability index of 1.89. Variant YVFRKNSLKKGSLVKNLKDTLGLG [E3F] has a protein stability index of 2.01. For YVERKNSLKYGSLVKNLKDTLGLG [K10Y], the protein stability index was 1.68. With YVERKNSLKKGSLVSNLKDTLGLG [K15S] the protein stability index was 2.26. Variant YVTRKNSLKKGSLVKNLKDTLGLG [E3T] has a protein stability index of 1.78. Variant YVERKNSLKKGSLVKNLKDTNGLG [L21N] has a protein stability index of 2.33. Work on YVERKNSLKKGPLVKNLKDTLGLG [S12P] yielded a protein stability index of 2.31. Variant YVERKNSLKKGSLVKNLKDQLGLG [T20Q] has a protein stability index of 2.64. YVERKNSLKKGSLVKNLKDTLVLG [G22V] showed a protein stability index of 1.97. YVERKNSLKKGSLVKNLKGTLGLG [D19G] gave a protein stability index of 1.92. Variant GVERKNSLKKGSLVKNLKDTLGLG [Y1G] has a protein stability index of 3.92. For YVERKNSLKKGSLQKNLKDTLGLG [V14Q], the protein stability index was 2.74. With YVERKNSLKKGSQVKNLKDTLGLG [L13Q] the protein stability index was 2.64. With YVERKNSLRKGSLVKNLKDTLGLG [K9R] the protein stability index was 2.54. Work on YVENKNSLKKGSLVKNLKDTLGLG [R4N] yielded a protein stability index of 2.48. Variant YVERKNSLKKGSLVKNLKDTLWLG [G22W] has a protein stability index of 2.56. Variant YVERKNSLKKYSLVKNLKDTLGLG [G11Y] has a protein stability index of 1.59. For YVERKNSLCKGSLVKNLKDTLGLG [K9C], the protein stability index was 1.94. With YVERKNSLKKGSLVTNLKDTLGLG [K15T] the protein stability index was 2.56. Work on YVERKNSLKKGSLVKNLEDTLGLG [K18E] yielded a protein stability index of 2.46. For YVERKNSLKKGSFVKNLKDTLGLG [L13F], the protein stability index was 1.86. Variant YVERKNSLKKGSLVKNLKETLGLG [D19E] has a protein stability index of 2.43. In the case of YVERKNSHKKGSLVKNLKDTLGLG [L8H], the protein stability index is reported as 3.11. YVERKNSLKKGSLVKQLKDTLGLG [N16Q] gave a protein stability index of 1.97. Work on YVEEKNSLKKGSLVKNLKDTLGLG [R4E] yielded a protein stability index of 2.42. For YVERKNSLKKGSLLKNLKDTLGLG [V14L], the protein stability index was 2.31. YVERKNSLKKGSLVKNLKSTLGLG [D19S] showed a protein stability index of 2.16. With YVERKNSLKKMSLVKNLKDTLGLG [G11M] the protein stability index was 1.8. In the case of YVERKNSLAKGSLVKNLKDTLGLG [K9A], the protein stability index is reported as 2.15. In the case of YVERKNSLKKGSLVKNLKDTEGLG [L21E], the protein stability index is reported as 2.74. Variant MVERKNSLKKGSLVKNLKDTLGLG [Y1M] has a protein stability index of 3.64. With YVERKNYLKKGSLVKNLKDTLGLG [S7Y] the protein stability index was 1.74. Work on YVERKNSLKKGSLVKNLKDTDGLG [L21D] yielded a protein stability index of 2.81. With RVERKNSLKKGSLVKNLKDTLGLG [Y1R] the protein stability index was 3.18. In the case of YVERRNSLKKGSLVKNLKDTLGLG [K5R], the protein stability index is reported as 2.52. Work on YVERWNSLKKGSLVKNLKDTLGLG [K5W] yielded a protein stability index of 2.57. Variant YVERKNSLKKGSLVVNLKDTLGLG [K15V] has a protein stability index of 1.94. YVERKNSLKKGSLVKNLKYTLGLG [D19Y] gave a protein stability index of 1.49. In the case of YVERKNSLKKGSLVKNLKDTLGLE [G24E], the protein stability index is reported as 3.21. Variant YVERKNSLKKGSLVKELKDTLGLG [N16E] has a protein stability index of 2.73. In the case of YVERKNSLKKGSLVKNLKDTLGLF [G24F], the protein stability index is reported as 1.48. YVERKNSLKKGSLVKNLKDTLGFG [L23F] showed a protein stability index of 2.52. Variant YVERFNSLKKGSLVKNLKDTLGLG [K5F] has a protein stability index of 2.58. With YVERKNSLKKGSLVKNLQDTLGLG [K18Q] the protein stability index was 2.48. Variant YVERKNSLKKGSLVKNLKDNLGLG [T20N] has a protein stability index of 2.62. Work on YVERKNSLKKGSLVKNCKDTLGLG [L17C] yielded a protein stability index of 2.55. Work on YVEYKNSLKKGSLVKNLKDTLGLG [R4Y] yielded a protein stability index of 1.33. YVERKNSLYKGSLVKNLKDTLGLG [K9Y] gave a protein stability index of 2.28. In the case of YVERKNSLKKGSLVKNLKDTLGDG [L23D], the protein stability index is reported as 2.76. For YVERKNSLKKGNLVKNLKDTLGLG [S12N], the protein stability index was 2.63. Variant CVERKNSLKKGSLVKNLKDTLGLG [Y1C] has a protein stability index of 3.41. In the case of YVERKNSLKDGSLVKNLKDTLGLG [K10D], the protein stability index is reported as 2.56. Variant YVERKNSLKKGSLVKNLFDTLGLG [K18F] has a protein stability index of 1.33. For YVERKNSLKKGSLVKNLKDTLFLG [G22F], the protein stability index was 2.86. For YVERKNSLKKGELVKNLKDTLGLG [S12E], the protein stability index was 2.4. In the case of YVERKNSLKKGYLVKNLKDTLGLG [S12Y], the protein stability index is reported as 2.19. Work on YVERKNSLKIGSLVKNLKDTLGLG [K10I] yielded a protein stability index of 1.89. YVERKNSLKKGSLVKNLKDTLHLG [G22H] gave a protein stability index of 2.01. Work on YVERKNSLKKRSLVKNLKDTLGLG [G11R] yielded a protein stability index of 2.32. YVERKDSLKKGSLVKNLKDTLGLG [N6D] gave a protein stability index of 2.74. YVERKNSNKKGSLVKNLKDTLGLG [L8N] showed a protein stability index of 2.55. In the case of YVERKNSLKKGSLVKNLKDALGLG [T20A], the protein stability index is reported as 2.33. YVERKNSLKKGSLSKNLKDTLGLG [V14S] gave a protein stability index of 2.07. YKERKNSLKKGSLVKNLKDTLGLG [V2K] showed a protein stability index of 3.67. Work on YVERKNSLKKGSLGKNLKDTLGLG [V14G] yielded a protein stability index of 2.04. In the case of YVERKNSLKKGSLVKNLKDTLNLG [G22N], the protein stability index is reported as 2.46. With YVERKNSLKKASLVKNLKDTLGLG [G11A] the protein stability index was 2.18. Variant YVERYNSLKKGSLVKNLKDTLGLG [K5Y] has a protein stability index of 2.84. Work on YVVRKNSLKKGSLVKNLKDTLGLG [E3V] yielded a protein stability index of 1.9. Variant YVERKNSLKKGSLVHNLKDTLGLG [K15H] has a protein stability index of 2.23. YVERKNSLKKGSLVKTLKDTLGLG [N16T] gave a protein stability index of 2.41. In the case of YVERKNSLKKGSYVKNLKDTLGLG [L13Y], the protein stability index is reported as 2.52. Work on YVEDKNSLKKGSLVKNLKDTLGLG [R4D] yielded a protein stability index of 2.67. YVERKNSLKKGSLVKNLKDTLGCG [L23C] showed a protein stability index of 2.53. For YVERKNSLKKGSLVKNLNDTLGLG [K18N], the protein stability index was 2.3. Work on YVERKNDLKKGSLVKNLKDTLGLG [S7D] yielded a protein stability index of 2.57. In the case of YVERKNSSKKGSLVKNLKDTLGLG [L8S], the protein stability index is reported as 1.99. In the case of YVIRKNSLKKGSLVKNLKDTLGLG [E3I], the protein stability index is reported as 2.1. In the case of YVERKNSLKKGSLVKNLKHTLGLG [D19H], the protein stability index is reported as 1.47. Variant YVERKNSLKKGCLVKNLKDTLGLG [S12C] has a protein stability index of 2.13. With NVERKNSLKKGSLVKNLKDTLGLG [Y1N] the protein stability index was 3.71. EVERKNSLKKGSLVKNLKDTLGLG [Y1E] showed a protein stability index of 4.06. YVERKNSLKKGSLVKFLKDTLGLG [N16F] gave a protein stability index of 2.69. Variant YVERKNSLKKGSLVKNLKDTIGLG [L21I] has a protein stability index of 2.42. Work on YVERKNSLKKNSLVKNLKDTLGLG [G11N] yielded a protein stability index of 2.4. In the case of YVERKNSLKKGSLVKNLKDTLDLG [G22D], the protein stability index is reported as 2.21.
